# Source: US20220127354A1 (Amgen, published 2022)
# Substitutions are numbered along the chain they refer to. Names may count otherwise.
# T1: ckCDH19(1-43)::FLAG::ckCDH19(44-141)::huCDH19(142-249)::ckCDH19(250-776) (construct L, Hu EC2) (human/chicken chimera)
# T1 construct: leader (1-43 of the entry) left out
# T1 chain: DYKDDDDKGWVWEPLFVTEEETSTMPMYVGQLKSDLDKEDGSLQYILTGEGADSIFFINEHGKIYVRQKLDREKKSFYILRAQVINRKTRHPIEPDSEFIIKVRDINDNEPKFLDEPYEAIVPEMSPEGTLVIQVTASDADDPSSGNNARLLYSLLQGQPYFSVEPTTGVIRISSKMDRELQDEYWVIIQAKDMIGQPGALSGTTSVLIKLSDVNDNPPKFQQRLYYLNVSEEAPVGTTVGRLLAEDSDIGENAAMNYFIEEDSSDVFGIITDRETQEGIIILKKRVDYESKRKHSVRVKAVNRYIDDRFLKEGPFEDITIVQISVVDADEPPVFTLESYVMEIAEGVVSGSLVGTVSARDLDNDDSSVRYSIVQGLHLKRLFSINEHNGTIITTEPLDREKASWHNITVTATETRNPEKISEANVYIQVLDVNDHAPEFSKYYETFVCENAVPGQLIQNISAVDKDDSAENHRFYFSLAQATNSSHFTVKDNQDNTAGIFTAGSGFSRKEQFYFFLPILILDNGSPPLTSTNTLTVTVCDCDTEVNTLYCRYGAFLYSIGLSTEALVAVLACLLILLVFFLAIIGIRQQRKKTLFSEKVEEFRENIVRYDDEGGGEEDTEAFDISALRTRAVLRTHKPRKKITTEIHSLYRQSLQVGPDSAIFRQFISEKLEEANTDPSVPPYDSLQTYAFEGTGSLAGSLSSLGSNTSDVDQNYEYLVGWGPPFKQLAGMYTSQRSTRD
# T2: ckCDH19(1-43)::FLAG::ckCDH19(44-468)::huCDH19(464-772) (construct O, Hu EC5) (human/chicken chimera)
# T2 construct: leader (1-43 of the entry) left out
# T2 chain: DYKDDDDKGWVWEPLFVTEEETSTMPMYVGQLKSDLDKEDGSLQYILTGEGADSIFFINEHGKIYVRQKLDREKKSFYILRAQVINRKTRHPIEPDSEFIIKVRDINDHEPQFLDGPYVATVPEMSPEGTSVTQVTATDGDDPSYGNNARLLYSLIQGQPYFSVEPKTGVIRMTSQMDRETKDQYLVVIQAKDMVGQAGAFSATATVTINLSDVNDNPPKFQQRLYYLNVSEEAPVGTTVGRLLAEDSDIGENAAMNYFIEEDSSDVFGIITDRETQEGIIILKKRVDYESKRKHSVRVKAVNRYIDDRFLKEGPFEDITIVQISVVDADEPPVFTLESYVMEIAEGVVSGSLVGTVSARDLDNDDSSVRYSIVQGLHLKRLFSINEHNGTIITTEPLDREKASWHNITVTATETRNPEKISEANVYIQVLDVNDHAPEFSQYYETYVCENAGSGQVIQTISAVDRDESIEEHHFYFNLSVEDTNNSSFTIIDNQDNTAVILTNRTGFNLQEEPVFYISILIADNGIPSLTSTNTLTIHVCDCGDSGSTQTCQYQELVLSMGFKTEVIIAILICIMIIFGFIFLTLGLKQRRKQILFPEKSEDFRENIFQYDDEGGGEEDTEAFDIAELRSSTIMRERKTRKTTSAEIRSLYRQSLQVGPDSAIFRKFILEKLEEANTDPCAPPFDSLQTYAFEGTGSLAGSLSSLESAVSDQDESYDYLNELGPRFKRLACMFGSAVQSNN
# B1: hu anti-<huCDH19> 4A9 (Ab ID 13589) (antibody, human IgG1, lambda, V domains shown)
# VH: QVQLQESGPGLVKPSETLSLTCTVSGGSISGYYWSWIRQPPGKGLEWFAYFSYSGSTNYNPSLKSRVTLSVDTSKNQFSLKLSSVTAADTAVYYCARNWAFHFDFWGQGTLVTVSS
# VL: QSVLTQPPSVSGAPGQRVTISCTGSSSNIGTGYAVHWYQQFPGTAPKLLIYGNNNRPSGVPDRFSGSKSGTSASLAITGLQAEDEADYYCQSYDSRLSGWVFGGGTKLTVLG
# notes: huIgG1z / huLLC-C1; Bin 1
# B2: hu anti-<huCDH19> 26D1.1 (Ab ID 13882) (antibody, human IgG1, lambda, V domains shown)
# VH: QVQLVQSGAEVKKPGASVKVSCKASRYTFTSYYMSWVRQAPGQGLEWMGIIHPSGGDTTYAQKFQGRVTMTGDTSTSTVYMELSSLRSEDTAVYYCARGGIKLWLHFDYWGQGTLVTVSS
# VL: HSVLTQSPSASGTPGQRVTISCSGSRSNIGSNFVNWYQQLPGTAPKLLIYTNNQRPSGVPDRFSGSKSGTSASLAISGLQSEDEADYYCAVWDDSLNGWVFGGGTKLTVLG
# notes: huIgG1z / huLLC-C2; Bin 2
# B3: anti-CDH19 antibody 2G6 (Ab ID 13588) (antibody, human IgG1, lambda, V domains shown)
# VH: QVQLVESGGGVVQPGRSLRLSCAASGFTFSSYGMHWVRQAPGKGLEWVAFIWYDGSNKYYADSVKDRFTISRDNSKNTLYLQMKSLRAEDTAVYYCARRAGIIGTIGYYYGMDVWGQGTTVTVSS
# VL: SYELTQPPSVSVSPGQTASITCSGDRLGEKYTCWYQQRPGQSPLLVIYQDTKRPSGIPERFSGSNSGNTATLTISGTQAMDEADYYCQAWDSSTVVFGGGTKLTVLG
# notes: Bin 4
# B4: hu anti-<huCDH19> 4B10 (Ab ID 13590) (antibody, V domains shown)
# VH: QVQLVESGGGVVQPGRSLRLSCAASGFTFSSYDMHWVRQAPGKGLEWVAVISYDGTNEYYADSVKGRFTISRDTSKNTLYLQMNSLRAEDTAVYYCARERYFDWSFDYWGQGTLVSVSS
# VL: EIVLTQSPGTLSLSPGERATLSCRASQSVSNTYLAWYHQRPGQAPRLLIYGASSRATGIPDRFSGSGSGTDFALTISSLEPEDFAVYYCQQYSNSWTFGQGTKVEIKR
# notes: huIgG1z / huKLC; Bin 4
# B5: anti-CDH19 antibody 4A2 (Ab ID 13592) (antibody, human IgG1, kappa, V domains shown)
# VH: QVQLQESGPGLVKPSQTLSLTCTVSGGSISSSGYYWSWIRQHPGKGLEWIGYIYYTGSAYYNPSLKSRVTISVDTSKNQFSLKLSSVTAADTAVYYCARDGSSGWYFQYWGQGTLVTVSS
# VL: EIVLTQSPGTLSLSPGERATLSCRASRNISSSYLAWYQQKPGQAPRLLIYGPSSRATGIPDRFSGSGSGTDFTLTISRLEPEDFTVYYCQQYGSSFTFGPGTKVDIKR
# notes: Bin 4
# B6: hu anti-<huCDH19> 25F8.1 (1-469)(F90Y) VH::huIgG1z + 25F8.1 (1-235)(K45Q,S102A,D111E) VL::huLLC-C2 (Ab ID 14096) (antibody, V domains shown)
# VH: B2 VH with R26G, M34I, S35H, H52N, D57S, T59R, G72R, K102Q
# VL: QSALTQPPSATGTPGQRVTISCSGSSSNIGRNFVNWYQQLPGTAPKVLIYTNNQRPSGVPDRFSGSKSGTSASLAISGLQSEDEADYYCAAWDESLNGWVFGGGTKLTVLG
# notes: Engineered variant of 25F8; the entries already carry the changes; Bin 2
# B7: hu anti-<huCDH19> 23A10.3 (1-474)(L92Q) VH::huIgG1z + 23A10.3 (1-231)(C42S) VL::huLLC-C2 (Ab ID 14077) (antibody, V domains shown)
# VH: B3 VH with S31R, M34I, F50V, D66G, K84N, T91S, I103P, I106T
# VL: B3 VL with T32V, C33S, R38K, L44I, T51N, R53W
# notes: Engineered variant of 23A10; the entries already carry the changes; Bin 4
# Target: T3, huCDH19(44-249)::muCDH19(248-770) with Flag tag (construct C, Hu EC1-2) (human/mouse chimera)
# T3 construct: leader left out; the entry starts at residue 44; also called C137896
# Test: flow cytometry, transfected 293T cells
# Excerpt: (§1) The experiment included assaying the anti-CDH19 antibodies against mouse Cadherin19 to determine suitability for binning on these human/mouse chimeras.
row,binding result,Binder
1,binds,B1
2,binds,B2
3,binds,B3

# Target: T4, huCDH19(44-141)::muCDH19(140-770) with Flag tag (construct B, Hu EC1) (human/mouse chimera)
# T4 construct: leader left out; the entry starts at residue 44; also called C137897
# Test: flow cytometry, transfected 293T cells
# Excerpt: as §1
row,binding result,Binder
1,binds,B1
2,binds,B2
3,binds,B3

# Target: T5, huCDH19(1-43)::FLAG::hu(44-141)::ckCDH19(142-776) (construct K, Hu EC1) (human/chicken chimera)
# T5 construct: leader (1-43 of the entry) left out; also called huCDH19(44-141)::ckCDH19(142-776)
# Test: flow cytometry, transfected 293T cells, 2 mM CaCl2;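 also: binding of Alexa647-labelled anti-CDH19 antibodies to cells expressing human/chicken CDH19 chimeras, read as cell-bound fluorescence, with mock-transfected cells as controls, n.d. meaning not determined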
# Description: (§2) The experiment included assaying a subset of anti-CDH19 antibodies against chicken Cadherin19 to determine suitability for binning on these human/chicken chimeras.
# (§3) The following binding assay was completed in presence of 2 mM CaCl₂). […] Cells were then washed one time and the amount of cell associated Alexa647-labelled Ab was quantitated by flow cytometry. The experiments included mock transfected controls.
row,binding result,Binder
1,binds,B1
2,no binding (tested: 5 ug/ml),B4
3,no binding (tested: 5 ug/ml),B5
4,binds,B2
5,binds,B6
6,no binding (tested: 5 ug/ml),B3
7,no binding (tested: 5 ug/ml),B7

# Target: T1, ckCDH19(1-43)::FLAG::ckCDH19(44-141)::hu …
# Test: flow cytometry, transfected 293T cells, 2 mM CaCl2;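 also: binding of Alexa647-labelled anti-CDH19 antibodies to cells expressing human/chicken CDH19 chimeras, read as cell-bound fluorescence, with mock-transfected cells as controls, n.d. meaning not determined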
# Description: as §2, §3
row,binding result,Binder
1,no binding (tested: 5 ug/ml),B1
2,no binding (tested: 5 ug/ml),B4
3,no binding (tested: 5 ug/ml),B5
4,no binding (tested: 5 ug/ml),B2
5,no binding (tested: 5 ug/ml),B6
6,no binding (tested: 5 ug/ml),B3
7,no binding (tested: 5 ug/ml),B7

# Target: T6, ckCDH19(1-43)::FLAG::ckCDH19(44-249)::huCDH19(250-364)::ckCDH19(365-776) (construct M, Hu EC3) (human/chicken chimera)
# T6 construct: leader (1-43 of the entry) left out
# Test: flow cytometry, transfected 293T cells, 2 mM CaCl2;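 also: binding of Alexa647-labelled anti-CDH19 antibodies to cells expressing human/chicken CDH19 chimeras, read as cell-bound fluorescence, with mock-transfected cells as controls, n.d. meaning not determined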
# Description: as §2, §3
row,binding result,Binder
1,no binding (tested: 5 ug/ml),B1
2,binds,B4
3,no binding (tested: 5 ug/ml),B2
4,no binding (tested: 5 ug/ml),B6
5,binds,B3
6,binds,B7

# Target: T2, ckCDH19(1-43)::FLAG::ckCDH19(44-468)::hu …
# Test: flow cytometry, transfected 293T cells, 2 mM CaCl2;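 also: binding of Alexa647-labelled anti-CDH19 antibodies to cells expressing human/chicken CDH19 chimeras, read as cell-bound fluorescence, with mock-transfected cells as controls, n.d. meaning not determined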
# Description: as §2, §3
row,binding result,Binder
1,no binding (tested: 5 ug/ml),B1
2,no binding (tested: 5 ug/ml),B4
3,no binding (tested: 5 ug/ml),B5
4,no binding (tested: 5 ug/ml),B2
5,no binding (tested: 5 ug/ml),B6
6,no binding (tested: 5 ug/ml),B3
7,no binding (tested: 5 ug/ml),B7

# Target: T7, Human Cadherin-19 (human, UniProt Q9H159 44-772)
# T7 construct: also called CDH19; huCDH19
# Test: FACS, endogenous CDH-19 on CHL-1 and Colo699 tumor cells
# Description: FACS binding assays were performed to evaluate the binding of the anti-Cadherin-19 receptor specific antibodies to endogenous Cadherin-19 receptor expressed on the CHL-1 tumor cell lines.
# FACs assays were performed by incubating hybridoma supernatants with 10,000 to 25,000 cells in PBS/2% Fetal bovine serum/2 mM Calcium Chloride at 4° C. for one hour followed by two washes with PBS/2% Fetal bovine serum/2 mM Calcium Chloride. Cells were then treated with florochrome-labeled secondary antibodies at 4° C. followed by one wash. The cells were resuspended in 50 μl of PBS/2% FBS and antibody binding was analyzed using a FACSCalibur™ instrument.
row,binding result,Binder
1,binds,B1
2,binds,B4
3,binds,B2
4,binds,B3
